According to US8465735B2, “Variant form of urate oxidase and use thereof” (Savient Pharmaceuticals, Inc., priority 2005, dated 2013):

Tested on: O=c1[nH]c(=O)c2[nH]c(=O)[nH]c2[nH]1
Assay: purified protein, by the assay type
Conditions: other: sodium borate buffer, pH 9.2, 25.0 °C
Procedure: Activity of uricase was measured by a UV method. […] Uricase potency is expressed in activity units per mg protein (U/mg).
The absorbance change with time (ΔA292 per minute) was derived from the linear portion of the curve.
The specific activity (potency) of uricase was calculated by dividing the activity in U/ml with protein concentration in mg/ml.

Substance: A. flavus (Aspergillus flavus) uricase, native (Merck) (Aspergillus flavus)
- Km: 23.54 µM
- kcat: 11.2 s⁻¹
